From US12037361B2, “Methods for treating multidrug resistant breast cancer” (THE HONG KONG POLYTECHNIC UNIVERSITY, priority 2021, dated 2024)

Target: T1, ITGA2/CRT interaction (Homo sapiens, UniProt P17301)
T1 construct: endogenous in cells; host or cells: MCF-7-derived cells (lysate)
Assay: Co-immunoprecipitation with anti-CRT antibody: competition with CRT for KXGFFKR motif of ITGA2
Type: binding
Conditions: CSC lysate immunoprecipitated with anti-CRT antibody; TAT peptides at 1 μM for 24 hours
Procedure: Calreticulin (CRT) from MCF-7-derived cells was immunoprecipitated by anti-CRT (CST) antibody. In brief, MCF-7-derived cells, with or without 24-hour incubation of 1 μM TAT-SP or TAT-SPScr, were collected and subsequently lysed with RIPA buffer on ice for 30 minutes. The lysate was diluted 5-fold with PBS and incubated with anti-CRT antibody overnight at 4° C. with simultaneous mixing on a rotating platform, followed by further incubation of Protein-G PLUS agarose (Santa Cruz Biotechnology) at 4° C. for at least 2 hours.
After incubation, agarose beads were centrifuged and washed by PBS. Immunoprecipitated proteins were collected by treating the beads with 0.2 M glycine and subjected to Western Blotting (WB) analysis.

T1 sequence (P17301 30-1181): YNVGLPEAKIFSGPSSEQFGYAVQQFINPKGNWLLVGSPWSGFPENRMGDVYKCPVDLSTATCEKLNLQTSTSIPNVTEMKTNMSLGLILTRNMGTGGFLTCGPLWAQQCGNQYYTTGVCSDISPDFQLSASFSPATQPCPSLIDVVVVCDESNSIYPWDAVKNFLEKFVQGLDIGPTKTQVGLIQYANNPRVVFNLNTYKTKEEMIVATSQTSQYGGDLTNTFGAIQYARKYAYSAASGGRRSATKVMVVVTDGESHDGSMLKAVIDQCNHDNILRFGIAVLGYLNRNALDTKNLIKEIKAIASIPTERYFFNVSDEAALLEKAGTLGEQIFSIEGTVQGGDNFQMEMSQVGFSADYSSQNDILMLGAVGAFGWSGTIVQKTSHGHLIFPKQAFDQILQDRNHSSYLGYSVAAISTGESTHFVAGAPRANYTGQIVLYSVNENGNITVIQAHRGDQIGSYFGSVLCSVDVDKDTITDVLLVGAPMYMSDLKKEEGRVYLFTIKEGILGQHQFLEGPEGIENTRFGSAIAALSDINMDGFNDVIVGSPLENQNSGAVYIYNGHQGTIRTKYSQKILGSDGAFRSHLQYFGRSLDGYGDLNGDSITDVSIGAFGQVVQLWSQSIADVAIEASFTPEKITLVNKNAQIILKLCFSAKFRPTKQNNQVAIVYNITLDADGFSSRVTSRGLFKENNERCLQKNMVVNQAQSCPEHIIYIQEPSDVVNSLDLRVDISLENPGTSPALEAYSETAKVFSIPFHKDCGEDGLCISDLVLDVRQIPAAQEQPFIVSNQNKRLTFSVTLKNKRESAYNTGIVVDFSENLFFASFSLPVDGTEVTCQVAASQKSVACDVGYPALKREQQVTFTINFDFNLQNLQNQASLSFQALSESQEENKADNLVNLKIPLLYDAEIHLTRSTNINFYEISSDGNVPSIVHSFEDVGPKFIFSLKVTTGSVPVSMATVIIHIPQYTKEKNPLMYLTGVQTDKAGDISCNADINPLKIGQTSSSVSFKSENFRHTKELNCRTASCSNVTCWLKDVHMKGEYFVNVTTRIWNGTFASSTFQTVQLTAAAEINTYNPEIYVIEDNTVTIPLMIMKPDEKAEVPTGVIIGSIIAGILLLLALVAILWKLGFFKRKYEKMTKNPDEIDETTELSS
T1 sequence (P05556 21-798 partner): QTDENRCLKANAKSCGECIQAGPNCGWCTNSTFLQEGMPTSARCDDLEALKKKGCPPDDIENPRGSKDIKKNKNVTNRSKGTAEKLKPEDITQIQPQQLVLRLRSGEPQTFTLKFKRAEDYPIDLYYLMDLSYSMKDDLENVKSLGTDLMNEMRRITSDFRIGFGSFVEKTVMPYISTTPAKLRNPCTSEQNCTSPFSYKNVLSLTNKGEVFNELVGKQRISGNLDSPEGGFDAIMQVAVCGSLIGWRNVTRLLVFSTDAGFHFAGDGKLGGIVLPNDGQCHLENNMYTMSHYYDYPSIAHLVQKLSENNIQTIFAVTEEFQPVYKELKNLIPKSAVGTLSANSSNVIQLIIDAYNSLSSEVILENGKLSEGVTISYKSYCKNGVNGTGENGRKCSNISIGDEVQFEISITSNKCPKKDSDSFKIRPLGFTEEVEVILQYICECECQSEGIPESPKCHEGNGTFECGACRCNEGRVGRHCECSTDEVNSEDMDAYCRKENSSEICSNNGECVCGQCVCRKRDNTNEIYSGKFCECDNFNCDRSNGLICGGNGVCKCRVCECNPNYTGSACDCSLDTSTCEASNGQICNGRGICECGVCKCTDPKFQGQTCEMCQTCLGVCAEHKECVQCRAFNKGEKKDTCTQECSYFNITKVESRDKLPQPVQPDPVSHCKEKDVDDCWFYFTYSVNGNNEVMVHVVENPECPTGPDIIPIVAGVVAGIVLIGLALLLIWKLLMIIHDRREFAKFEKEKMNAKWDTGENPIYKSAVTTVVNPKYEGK

Sequence: SELGFPPAVQRWVIGRCLCVPER [SP, peptide derived from the UBL domain of SHARPIN (residues 259-281)]
- competition with CRT for the KXGFFKR motif / inhibition of immunoprecipitation of ITGA2: compete with CRT
